Results as given in patent US20210198377A1 (XDCEXPLORER SHANGHAI, published 2021).

What was measured:
human TPBG-hFc [1] = target: T1, human TPBG-hFc (human, UniProt Q13641 32-355); assay: ELISA, coated human TPBG-hFc 1.0 ug/mL; antibody 2 nM
T1 construct: also called immunogen A; hFc tagged TPBG protein; not shown: The human IgG Fc fragment of the pCpC vector (Invitrogen V044-50) and any linker to it
T1 sequence: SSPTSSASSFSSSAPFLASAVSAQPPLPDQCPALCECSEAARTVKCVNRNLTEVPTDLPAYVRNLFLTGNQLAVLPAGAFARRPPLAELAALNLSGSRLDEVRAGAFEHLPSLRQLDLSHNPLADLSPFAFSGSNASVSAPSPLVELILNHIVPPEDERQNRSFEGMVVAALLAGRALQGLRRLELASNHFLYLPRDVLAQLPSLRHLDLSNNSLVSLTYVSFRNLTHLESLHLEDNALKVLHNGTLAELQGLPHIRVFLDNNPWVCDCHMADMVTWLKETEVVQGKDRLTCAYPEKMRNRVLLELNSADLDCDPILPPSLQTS
Protocol: (§1) The purified immunogen A (as for its method of preparation please refer to step 1 in Example 1) diluting with PBS to a final concentration of 1.0 μg/mL was aliquoted into a 96-well ELISA plate at 100 μL per well, and sealed with a parafilm and incubated at 4° C. overnight. The plate was washed twice with plate washing buffer (PBS containing 0.01% (v/v) Tween 20), and blocked with blocking buffer (PBS containing 0.01% (v/v) Tween 20 and 1% (w/w) BSA) at room temperature for 2 h. The blocking buffer was discarded, and 100 μL per well of the purified antibody obtained from Embodiment 2 was added. After incubating at 37° C. for 2 h, the plate was washed for three times with plate washing buffer (PBS containing 0.01% (v/v) Tween 20). HRP (horseradish peroxidase)-labeled secondary antibody (purchased from Sigma) was added and incubated at 37° C. for 2 h, and the plate was washed for three times using plate washing buffer (PBS containing 0.01% (v/v) Tween 20). 100 μL of TMB substrate was aliquoted into each well, incubated at room temperature for 30 min, and 100 μL of stop buffer (1.0N HCl) per well was subsequently added. A₄₅₀ₙₘ values were read using the ELISA plate reader (SpectraMax 384plus purchased from Molecular Device), and the results were shown in FIG. 6 and table 6. […] In Table 6 the IgG control herein is a mice IgG control, the data in the Table are OD₄₅₀ₘₙ values, and Blank means the OD₄₅₀ₘₙ value when there is only PBS buffer in the plate.

human TPBG-hFc [2] = target: T1, human TPBG-hFc; assay: ELISA, coated human TPBG-hFc 1.0 ug/mL; antibody 20 nM
Protocol: as §1

[3] = target: T2, biotinylated recombinant TPBG protein (Homo sapiens (Human), UniProt Q13641 32-355, Biotinylated; the number and positions of the biotin labels are not stated and the letters do not carry them.); assay: competitive ELISA; row antibody 5 ug/mL; competitor: coated 52C9E9F6
T2 sequence: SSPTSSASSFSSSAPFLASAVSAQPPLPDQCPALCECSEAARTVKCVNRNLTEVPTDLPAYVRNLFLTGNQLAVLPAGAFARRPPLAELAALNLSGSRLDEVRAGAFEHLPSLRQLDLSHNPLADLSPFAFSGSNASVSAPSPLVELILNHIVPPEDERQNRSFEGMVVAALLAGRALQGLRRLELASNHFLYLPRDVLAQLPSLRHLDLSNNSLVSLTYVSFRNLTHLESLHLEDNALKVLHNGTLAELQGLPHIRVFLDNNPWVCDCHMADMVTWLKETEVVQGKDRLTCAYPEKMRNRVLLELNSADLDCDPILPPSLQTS
Protocol: (§2) The purified antibodies to be tested were diluted to 1 μg/mL using PBS, and coated with high-adsorption of 96-well microplates at […]. After overnight coating at 4[…], 250 μL of blocking buffer (PBS containing 0.01% (v/v) Tween20 and 1% (w/w) BSA) was added to block coating at room temperature for 1 h, and 0.05 μg/mL of biotinylated recombinant TPBG protein was added to each well. Meanwhile, 5 μg/mL final concentration of competitive antibodies, i.e. the purified antibodies obtained from Embodiment 2 with the clone number of 12B12C7C3, 5G4H10G5, 37H9C5G2, 39A11G5F2, 52C9E9F6, 28D4E6A9, 36A10D8B12, 99E12C7H1, 103E2E9C2 and 106D5G3D10 were added and incubated at 25-37° C. for 1-2 h. The plates were washed three times with plate-washing buffer (PBS containing 0.01% (v/v) Tween20) and HRP (horseradish peroxidase)-labeled streptavidin (purchased from Sigma) was added. After incubating at 37° C. for 0.5 h, the plates were washed three times with plate-washing buffer (PBS containing 0.01% (v/v) Tween20), and 100 μL of TMB substrate was added to each well and the plates were further incubated at room temperature for 30 min prior to adding 100 μL of stop buffer (1.0N HCl) to each well. A₄₅₀ₙₘ values were read using an ELISA microplate reader (SpectraMax 384plus purchased from Molecular Device) and results were shown in FIG. 6. The higher the values of the competition rate, the closer the antigen surface of the two antibodies are.

[4] = target: T2, biotinylated recombinant TPBG protein; assay: competitive ELISA; row antibody 5 ug/mL; competitor: coated 36A10D8B12
Protocol: as §2

B1: 37H9C5G2 (antibody, V domains shown)
VH: QVQLQQSDAELVRPGASVKMSCKVSGYTFTDHTIHWMKQRPEQGLEWIGYIYPRDGSGTYNEKFKGKATLTADKSSSTAYMQLNSLTSEDSAVYFCARDGSSHYWYFDVWGTGTTVTVSS
VL: DIQMTQSPASLSASVGETVTITCRASEIIYNYLAWYQQKQGKSPQLLVYNAKTLAEGVPSRFSGSYSGTQFSLNINSLQSEDFGIYYCQHHHDTPLTFGAGTKLDLK
notes: Mouse hybridoma antibody purified from culture supernatant; also called TPBG antibody; lead antibody
Binder B1 has an OD450nm (human TPBG-hFc [1]) of 2.52 OD450nm, an OD450nm (human TPBG-hFc [2]) of 2.63 OD450nm and a competition rate [3] of 5%. The competition rate [4] was 94%.

B2: 12B12C7C3 (antibody, V domains shown)
VH: DVQLVESGGGLVQPGGSRKLSCAASGFTFSNFGMHWVRQAPEKGLEWVAYISSGSTSFYYADTVKGRFTISRDNPKNTLFLQMTSLRSEDTAMYYCSRTNSLLRGFFDAWGAGTTVTVSS
VL: DIVLTQSPASLAVSLGQRATISCRASQSVSSSSYTYLHWYQQKPGQPPKLLIKSASNLESGVPARFSGTGSGTDFTLNIHPVEEEDTATYYCQHSWEIPLTFGAGTKLELK
notes: as for B1
Binder B2 has an OD450nm (human TPBG-hFc [1]) of 2.84 OD450nm, an OD450nm (human TPBG-hFc [2]) of 2.83 OD450nm and a competition rate [3] of 4%. The competition rate [4] was 3%.

B3: 5G4H10G5 (antibody, V domains shown)
VH: EVQLVESGGDLVQPGGSLKLFCAASGFTFSTYGLSWVRQTPDKRLELVATITNNDGSAYYPDSVKGRFTISRDKAKNTLFLQMTSLKSEDTAMYYCARETGFGSSYLFDYWGQGTLVTVSA
VL: NIVMTQTPKFLLVSAGDRVTITCKASQSVSNDVAWYQQKPGQSPKLLIYFATNRYTGVPNRFTGSGYGTEFTFTISSVQAEDLAVYFCQQDYSSPTFGGGTKLEIK
notes: as for B1
Binder B3 has an OD450nm (human TPBG-hFc [1]) of 2.68 OD450nm, an OD450nm (human TPBG-hFc [2]) of 2.8 OD450nm and a competition rate [3] of 19%. The competition rate [4] was 1%.

B4: 103E2E9C2 (antibody, V domains shown)
VH: EVQLQQSGPVLVKPGASVKMSCEASGYSFIDYYMSWVKQSRGRSLEWIGVFNPYSGEIIYNQKFKGKATLTVDKSSSTAYMELSSLTSEDSGVYSCARLRISYYAIDYWGQGTSVAVSS
VL: ENVLTQSPAIMSASPGEKVTMTCRATSSVSSGHFHWYQQKSGASPKVWIYSTSNLASGVPARFSGSGSGTSFSLTISSVEAEDVATYFCQQYSGYPLTFGGGTKLEIK
notes: as for B1
B4 gave an OD450nm (human TPBG-hFc [1]) of 2.64 OD450nm, an OD450nm (human TPBG-hFc [2]) of 2.62 OD450nm and a competition rate [3] of 0%. It also gave a competition rate [4] of 31%.

B5: 99E12C7H1 (antibody, V domains shown)
VH: QIQLVQSGPELKKPGETVKISCKPSGYTFTAYGLSWVKQAPGQGFQWMGWINTYSGVPTYTDDFKGRFAFSLETSAGTASLQITNLKNEDTATYFCARSSIPPFEYWGPGTTLTVSS
VL: SFVMTQSPKFLLVSVGDRVTITCKASQSVSNDVAWYQQKPGQPPRVLIYFASNRYTGVPDRFTGSGYGTDFTFTISTVQAEDLALYFCQQDYSSPWTFGGGTKLEIK
notes: as for B1
B5 gave an OD450nm (human TPBG-hFc [1]) of 2.93 OD450nm, an OD450nm (human TPBG-hFc [2]) of 2.88 OD450nm and a competition rate [3] of 0%. It also gave a competition rate [4] of 8%.

B6: 106D5G3D10 (antibody, V domains shown)
VH: EVQLVESGGGLVKPGGSLKLSCAASGFTFSDYGMHWVRQAPEKGLEWVGYISSGTYVVYYADTVKGRFTISRDNAKNTLFLQMTSLRSEDTAIYYCSTYGSNPFDYWGQGTTLTVSS
VL: QLVLTQSPAIMSASPGEKVTITCSATSSVSSMHWFQQKPVTSPKLWIYSTSNLASGVPTRFSGSGSGTSYSLTISRMEAEDAATYYCQQRSGYPPIFTFGSGTKLEIK
notes: as for B1
With B6 the OD450nm (human TPBG-hFc [1]) was 2.81 OD450nm, the OD450nm (human TPBG-hFc [2]) was 2.82 OD450nm and the competition rate [3] was 0%. For the same binder, the competition rate [4] was 1%.

B7: 39A11G5F2 (antibody, V domains shown)
VH: QVQLQQSGAELMKPGASMRLSCKATGYTFTGYWLEWIKRRPGHGLEWIGEILPGRGSTNYNEKFKGKATFTAETSSNTAYMQLTSLTTEDSAIYYCARGGRDFDNWGQGTTLTVSS
VL: DIQMTQSTSSLSASLGDRVTISCSASQGINNHLNWYQQKPDGTVKLLIYYTSSLHSGVPSRFSGSGSGTDYSLTISNLEPEDIAIYYCQQFSKLPYTFGGGTKVEMK
notes: as for B1
B7 was tested, and the OD450nm (human TPBG-hFc [1]) was 2.43 OD450nm, the OD450nm (human TPBG-hFc [2]) was 2.5 OD450nm and the competition rate [3] was 95%. It also gave a competition rate [4] of 0%.

B8: 52C9E9F6 (antibody, V domains shown)
VH: QVQLQQSGAELMKPGASVKLSCKATGYTFTGYWIEWIKQRPGHGLEWIGEILPGRGSTDYNEKFKGKATFTADTSSNTAYMQLSSLTTEDSAIYYCTRGRLDFTYWGQGTLVTVSA
VL: DIQMTQTTSSLSASLGDRVTISCSASQGIRNYLNWYQQKPDGTVKLLIYYTSSLHSGVPSRFSGSGSGTDYSLTISNLEPEDIATYYCQQYSKVPWTFGGGTKLEIK
notes: as for B1
B8 gave an OD450nm (human TPBG-hFc [1]) of 2.68 OD450nm, an OD450nm (human TPBG-hFc [2]) of 2.69 OD450nm and a competition rate [3] of 97%. The competition rate [4] was 19%.

B9: 36A10D8B12 (antibody, V domains shown)
VH: DVQLQESGPGMVKPSQSLSLTCTVTGYSITSGYDWHWIRHFPGNKLEWMGYISYSGNTNYNPSLKSRISITHNTSKNHFFLRLNSVTTEDTATYYCARGYGNWDAMDYWGQGTSVTVSS
VL: DIVMTQSQKFMSTSVGDRVSVTCKASQIVDTNVAWYQQKPGQSPKALISSASYRYSGVPDRFTGSGSGTDFTLTISNVQSEDLAEYFCQQYNSYPLTFGAGTKLELT
notes: as for B1
In the case of B9, the OD450nm (human TPBG-hFc [1]) is reported as 3.06 OD450nm, the OD450nm (human TPBG-hFc [2]) is reported as 3.07 OD450nm and the competition rate [3] is reported as 23%. The competition rate [4] was 85%.

B10: 28D4E6A9 (antibody, V domains shown)
VH: DVQLVESGGGLVRPGGSLKLSCAASGFTFSNYVMSWARQSPEKRLEWVAEISTGGSHTYYSDTVTGRFTISRDNAKKALYLEMSSLRSEDTAIYYCIMFYYGSSYSMDYWGQGTSVTVSS
VL: DIQMTQSTSSLSASLGDRITISCRASQDIRNYLNWYQQKPDGTVKLLIYHTSRLHSGVPSRFSGSGSGTDYSLTISNLEQEDIATYFCQQGDTLPLTFGAGTRLELK
notes: as for B1
Work on B10 yielded an OD450nm (human TPBG-hFc [1]) of 2.64 OD450nm, an OD450nm (human TPBG-hFc [2]) of 2.59 OD450nm and a competition rate [3] of 0%. The competition rate [4] was 75%.
